Measured values reported in patent publication US20240376207A1 (JIANGSU HENGRUI PHARMACEUTICALS, published 2024).

B1: anti-PVRIG antibody 39 (antibody, human IgG4 S228P, F234A L235A, V domains shown)
VH: QVQLVESGGGSVQAGGSLRLSCAASRYTSRTDCMGWFRQAPGKEREGVAHIDSDGIPRYVESVKGRFTISQDHAKNTLYLQMNSLKPEDSATYYCVVGFKFGDYCAPNDWGQGTQVTVSS
notes: no light chain
B2: positive antibody Tab5 (antibody, human IgG4 S228P, kappa, F234A L235A, V domains shown)
VH: EVQLVESGGGVVKPGGSLRLSCAASGFTFGTSSMNWVRQAPGKGLEWVAVISFDGTEIHYADSVKGRFTISRDNSKSTVFLQMNSLRPDDTALYYCAKGSGNIYFYSGMDVWGQGTTVTVSS
VL: DIQMTQSPSTLSASVGDRVTITCRAGQSISGWLAWFQQKPGKAPNLLIYETSTLESGVPSRFSGSGSGTEYTLTISSLQPDDFATYYCQQYYSYPLTFGQGTKVEIKR
notes: Variable regions of CPA.7.021 (WO2016134333A1) on human IgG4 (S228P/F234A/L235A/K447A) and human kappa constant regions
B3: humanized anti-PVRIG/TIGIT bispecific antibody 1708-20H5 (bispecific antibody, human IgG4 S228P, kappa)
heavy: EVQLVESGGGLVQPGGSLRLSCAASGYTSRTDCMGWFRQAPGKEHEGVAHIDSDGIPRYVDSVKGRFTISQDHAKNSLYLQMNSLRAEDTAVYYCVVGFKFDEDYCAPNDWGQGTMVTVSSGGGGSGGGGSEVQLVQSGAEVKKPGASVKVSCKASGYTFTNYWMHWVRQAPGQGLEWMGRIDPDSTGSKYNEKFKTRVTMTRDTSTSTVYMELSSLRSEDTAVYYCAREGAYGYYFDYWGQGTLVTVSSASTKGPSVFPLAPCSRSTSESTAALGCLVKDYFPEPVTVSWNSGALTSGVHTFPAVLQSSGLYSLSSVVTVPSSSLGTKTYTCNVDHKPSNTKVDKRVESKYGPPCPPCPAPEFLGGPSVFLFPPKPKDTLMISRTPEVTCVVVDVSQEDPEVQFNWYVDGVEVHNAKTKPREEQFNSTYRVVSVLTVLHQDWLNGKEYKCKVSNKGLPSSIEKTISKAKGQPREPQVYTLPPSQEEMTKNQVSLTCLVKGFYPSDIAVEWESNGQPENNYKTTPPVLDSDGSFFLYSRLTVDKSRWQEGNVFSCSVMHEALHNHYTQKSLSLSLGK
light: DIQMTQSPSSLSASVGDRVTITCRASENIYSYLAWYQQKPGKSPKLLIYNARTLAEGVPSRFSGSGSGTDFTLTISSLQPEDFATYYCQYHSGSPLPFGGGTKVEIKRTVAAPSVFIFPPSDEQLKSGTASVVCLLNNFYPREAKVQWKVDNALQSGNSQESVTEQDSKDSTYSLSSTLTLSKADYEKHKVYACEVTHQGLSSPVTKSFNRGEC
B4: humanized anti-PVRIG/TIGIT bispecific antibody 1708-30H2 (bispecific antibody, human IgG4 S228P, kappa)
heavy: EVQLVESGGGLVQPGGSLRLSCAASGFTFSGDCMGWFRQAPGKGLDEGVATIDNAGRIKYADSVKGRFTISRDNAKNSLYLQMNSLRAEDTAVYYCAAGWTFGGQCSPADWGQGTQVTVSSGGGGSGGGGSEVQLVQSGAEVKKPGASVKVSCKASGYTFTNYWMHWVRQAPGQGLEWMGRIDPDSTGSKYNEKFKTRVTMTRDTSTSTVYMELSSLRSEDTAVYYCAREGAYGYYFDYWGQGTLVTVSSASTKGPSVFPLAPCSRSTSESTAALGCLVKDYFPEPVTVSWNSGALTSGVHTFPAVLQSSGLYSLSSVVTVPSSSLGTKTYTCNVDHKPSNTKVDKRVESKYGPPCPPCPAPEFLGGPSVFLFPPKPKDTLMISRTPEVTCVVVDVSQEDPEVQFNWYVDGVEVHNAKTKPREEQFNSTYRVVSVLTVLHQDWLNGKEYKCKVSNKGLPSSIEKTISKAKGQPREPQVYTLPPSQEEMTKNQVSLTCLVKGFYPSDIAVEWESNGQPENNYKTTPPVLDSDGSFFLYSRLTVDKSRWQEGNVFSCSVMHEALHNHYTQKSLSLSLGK
light: B3 light
B5: anti-PVRIG antibody 30 (antibody, human IgG4 S228P, F234A L235A, V domains shown)
VH: HVQLVESGGGSVQAGGSLRLSCEASGYSYSGDCMGWFRRAPGKERDEGVATIDNAGRIKYADSVKGRFTISHGNGKYILYLQMNSLKPEDTDMYYCAAGWTFGGNCSPADWGQGTQVTVSS
notes: no light chain
B6: anti-PVRIG antibody 151 (antibody, human IgG4 S228P, F234A L235A, V domains shown)
VH: HVQLVESGGGSVQAGGSLRLSCVASASGFTYRPYCMAWFRQAPGKEREAVAGIDIFGGTTYADSVKGRFTASRDNAGFSLFLQMNDLKPEDTAMYYCAAGDSPDGRCPPLGQGLNYWGQGTQVTVSS
notes: no light chain
B7: anti-PVRIG antibody 38 (antibody, human IgG4 S228P, F234A L235A, V domains shown)
VH: QVQLVESGGGSVQAGGSLRLSCAASPSTYGPSDMAWFRQAPGKQREGVATISAAGRLTYYTDSVRGRFTISRDNAKNTMYLQMNSLKPEDTAMYYCAADFAGGSSLFADYKYWGQGTQVTVSS
notes: no light chain

Key:
[1] = target: T1, human IgG1 Fc-tagged mouse PVRIG (m-PVRIG-hIgG1 Fc) (mouse, UniProt A0A1B0GS01 35-165); assay: ELISA, coated antigen
T1 construct: bought from Acrobiosystems; also called Mouse PVRIG-Fc; mouse PVRIG recombinant protein; not shown: human IgG1 Fc tag of the Acrobiosystems product, and any linker to it
T1 sequence: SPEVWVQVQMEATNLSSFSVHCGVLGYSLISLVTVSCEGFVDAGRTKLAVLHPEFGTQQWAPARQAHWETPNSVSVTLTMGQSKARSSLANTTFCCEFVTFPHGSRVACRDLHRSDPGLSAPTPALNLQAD
Description: (§1) ELISA assay was used to detect binding properties of anti-PVRIG antibodies. […] After the antibody was added, the activity of the binding of the antibody to the antigen was detected by adding a secondary antibody (HRP-conjugated anti-primary antibody Fc antibody) and HRP substrate TMIB.
(§2) A human, cynomolgus monkey, or mouse PVRIG protein (at a concentration of 1 μg/mL) was coated on a 96-well microplate at 100 μL per well, and incubated overnight at 4° C. The plate was washed three times with wash buffer at 250 μL per well. For each wash, the plate was shaken for 10 s to ensure adequate cleaning. A blocking solution (PBS+0.05% Tween20+1% BSA) was added at 300 μL/well, and the plate was incubated at room temperature for 1 h. The plate was washed three times with wash buffer at 250 μL per well. For each wash, the plate was shaken for 10 s to ensure adequate cleaning. Dilutions of the test anti-PVRIG antibodies were added at 100 μL/well. The plate was incubated at 37° C. for 1 h. The plate was washed three times with wash buffer at 250 μL per well. The […] anti-human IgG secondary antibody (Sigma, A8667) was added at 100 μL per well. The plate was incubated at 37° C. for 1 h. The plate was washed three times with wash buffer at 250 μL per well. TMB was added at 100 μL/well, and the plate was incubated in the dark for 15 min. 0.16 M sulfuric acid was added at 50 μL/well. The OD values at 450 nm were read by using a Thermo MultiSkanFc microplate reader, and the EC₅₀ values of the binding of the anti-PVRIG antibodies to PVRIG were calculated.

[2] = target: T2, his-tagged human PVRIG (h-PVRIG-his) recombinant protein (human, UniProt Q6DKI7 41-171, limits assumed); assay: ELISA, coated antigen
T2 construct: bought from Acrobiosystems; also called Human PVRIG-his; human PVRIG recombinant protein; not shown: his tag
T2 sequence (looked up): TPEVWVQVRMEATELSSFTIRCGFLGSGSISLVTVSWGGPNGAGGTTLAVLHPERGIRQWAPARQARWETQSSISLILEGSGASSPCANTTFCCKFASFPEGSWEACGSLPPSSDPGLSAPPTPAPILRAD
Description: as §1, §2

[3] = target: T3, his-tagged cynomolgus monkey PVRIG (cyno-PVRIG-his) recombinant protein (cynomolgus monkey); assay: ELISA, coated antigen
T3 construct: expressed in HEK293, purified by Ni-NTA; also called Monkey PVRIG-his; cynomolgus monkey PVRIG recombinant protein
T3 chain: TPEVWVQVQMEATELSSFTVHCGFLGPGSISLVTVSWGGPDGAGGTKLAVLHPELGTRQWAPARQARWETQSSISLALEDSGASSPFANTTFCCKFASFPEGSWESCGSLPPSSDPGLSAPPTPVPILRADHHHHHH
Description: as §1, §2

[4] = target: T4, human PVRIG expressed on cells (human, UniProt Q6DKI7 41-326); assay: cell-based or functional assay
T4 sequence (looked up): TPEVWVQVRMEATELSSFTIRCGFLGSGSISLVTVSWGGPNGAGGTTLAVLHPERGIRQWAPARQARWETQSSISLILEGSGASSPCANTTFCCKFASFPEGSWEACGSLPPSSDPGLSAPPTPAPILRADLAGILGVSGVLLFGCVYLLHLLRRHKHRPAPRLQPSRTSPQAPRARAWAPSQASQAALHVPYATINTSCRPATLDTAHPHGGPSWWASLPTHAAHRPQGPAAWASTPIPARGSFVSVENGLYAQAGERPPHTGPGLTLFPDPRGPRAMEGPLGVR

[5] = target: T5, human TIGIT recombinant protein (human, UniProt Q495A1 22-141, limits assumed); assay: ELISA, coated antigen
T5 construct: construct not described; also called human TIGT recombinant protein
T5 sequence (looked up): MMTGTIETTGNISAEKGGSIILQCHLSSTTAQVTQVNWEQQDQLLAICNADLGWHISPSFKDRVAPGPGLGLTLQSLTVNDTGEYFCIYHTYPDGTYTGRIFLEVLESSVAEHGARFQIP
Description: as §2
(§3) Similarly to Examples 4, 5 and 6, the binding of humanized anti-PVRIG/TIGIT bispecific antibodies to human and cynomolgus monkey TIGIT and blocking of binding of human TIGIT to ligand were detected, where PVRIG protein was replaced with TIGIT and PVRL2 was replaced with PVR.

[6] = target: cynomolgus monkey TIGIT recombinant protein (cynomolgus monkey, UniProt A0A7N9I9V4 89-209); assay: ELISA, coated antigen
cynomolgus monkey TIGIT recombinant protein, sequence (A0A7N9I9V4 entry or part of it): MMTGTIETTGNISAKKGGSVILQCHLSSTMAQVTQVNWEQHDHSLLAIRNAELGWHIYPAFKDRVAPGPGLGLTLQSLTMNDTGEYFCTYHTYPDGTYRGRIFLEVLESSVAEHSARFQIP
Description: as §2, §3

[7] = target: T6, mouse IgG2a Fc-tagged human PVRIG (h-PVRIG-mIgG2a Fc) recombinant protein (human, UniProt Q6DKI7 41-171, limits assumed); assay: competition ELISA; human PVRIG coated, competitor human PVRL2
T6 construct: bought from Acrobiosystems; not shown: mouse IgG2a Fc tag
T6 sequence (looked up): T2 sequence (looked up)
Description: The h-PVRIG-mIgG2a Fc protein (at a concentration of 1 μg/mL) was coated on the 96-well microplate at 100 μL per well, and incubated overnight at 4° C. The plate was washed three times with wash buffer at 250 μL per well. For each wash, the plate was shaken for 10 s to ensure adequate cleaning. A blocking solution was added at 300 μL/well, and the plate was incubated at room temperature for 1 h. The plate was washed three times with wash buffer at 250 μL per well. For each wash, the plate was shaken for 10 s to ensure adequate cleaning. 50 μL of diluted test anti-PVRIG antibody and 50 μL of his-tagged ligand PVRL2 were added to each well, and the plate was incubated at 37° C. for 1 h. The plate was washed three times with wash buffer at 250 μL per well. The HRP-labeled anti-his-tagged secondary antibody (Genscrpit) diluted at 1:2000 was added at 100 μL per well. The plate was incubated at 37° C. for 1 h. The plate was washed three times with wash buffer at 250 μL per well. TMB was added at 100 μL/well, and the plate was incubated in the dark for 15 min. 0.16 M sulfuric acid was added at 50 μL/well. OD values at 450 nm were measured using a Thermo MμtLtiSkanFc microplate reader, and the IC₅₀ values of the anti-PVRIG antibodies blocking the binding of PVRIG to PVRL2 were calculated.
Binding of the humanized anti-PVRIG/TIGIT bispecific antibodies to human and cynomolgus monkey PVRIG and their blocking of the ligand of human PVRIG were detected according to the methods of Examples 4, 5 and 6.

Row | Binder | binding result [1] | EC50 [2] | EC50 [3] | PVRIG reporter gene cell activity EC50 [4] | binding result [5] | binding result [6] | IC50 [7] | EC50 [5] | EC50 [6]
1 | B1 | no binding | 0.27 nM | 0.16 nM | 0.06 nM |  |  |  |  | 
2 | B2 | no binding | 2.86 nM |  | 0.74 nM | no binding | no binding | 0.964 nM |  | 
3 | B3 |  |  |  |  |  |  | 0.628 nM | 0.145 nM | 0.112 nM
4 | B4 |  |  |  |  |  |  | 0.552 nM | 0.153 nM | 0.114 nM
5 | B5 | no binding | 0.26 nM | 0.16 nM | 0.06 nM |  |  |  |  | 
6 | B6 | no binding | 2.15 nM | 2.43 nM | 0.04 nM |  |  |  |  | 
7 | B7 | no binding | 0.26 nM | 0.4 nM | 0.2 nM |  |  |  |  | 
